Data as given in article PMC11339404.

What was measured:
Assay in all cases: FRET
SWSAP1-SWS1 = biological target: T1, SWSAP1-SWS1 (human, UniProt Q6NVH7;Q19AV6 1-250;1-140)
T1 sequence 1: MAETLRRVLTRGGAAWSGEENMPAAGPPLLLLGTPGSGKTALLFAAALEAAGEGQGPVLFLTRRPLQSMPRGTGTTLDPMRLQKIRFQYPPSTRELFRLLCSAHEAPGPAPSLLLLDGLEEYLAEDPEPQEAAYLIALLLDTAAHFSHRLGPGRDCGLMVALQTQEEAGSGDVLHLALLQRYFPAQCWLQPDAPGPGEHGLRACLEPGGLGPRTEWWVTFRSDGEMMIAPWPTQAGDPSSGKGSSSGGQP
T1 sequence 2: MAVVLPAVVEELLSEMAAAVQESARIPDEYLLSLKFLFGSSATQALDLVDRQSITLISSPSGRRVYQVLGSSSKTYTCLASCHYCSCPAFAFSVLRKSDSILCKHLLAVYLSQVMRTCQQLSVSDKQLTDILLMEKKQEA

RPA = RPA (human, UniProt P27694;P15927;P35244 1-616;1-270;1-121)
Sequence of RPA (P27694 whole entry, chain 1 of 3): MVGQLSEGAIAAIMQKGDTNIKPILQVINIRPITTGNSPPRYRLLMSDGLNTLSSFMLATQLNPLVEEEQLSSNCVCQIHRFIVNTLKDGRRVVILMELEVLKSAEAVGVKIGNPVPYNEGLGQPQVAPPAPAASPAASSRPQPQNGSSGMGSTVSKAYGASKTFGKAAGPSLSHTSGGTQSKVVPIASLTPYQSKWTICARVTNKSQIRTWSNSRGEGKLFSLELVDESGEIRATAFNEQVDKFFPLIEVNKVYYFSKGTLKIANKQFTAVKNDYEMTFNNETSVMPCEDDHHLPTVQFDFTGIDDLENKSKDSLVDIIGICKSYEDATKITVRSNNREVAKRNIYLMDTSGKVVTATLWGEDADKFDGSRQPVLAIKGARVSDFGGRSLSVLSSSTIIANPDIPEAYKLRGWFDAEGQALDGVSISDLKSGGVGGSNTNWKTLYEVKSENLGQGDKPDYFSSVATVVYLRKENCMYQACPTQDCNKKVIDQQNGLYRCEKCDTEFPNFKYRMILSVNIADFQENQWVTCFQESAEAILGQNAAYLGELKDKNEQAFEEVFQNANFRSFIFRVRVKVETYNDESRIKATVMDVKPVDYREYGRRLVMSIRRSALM
Sequence of RPA (P15927 whole entry, chain 2 of 3): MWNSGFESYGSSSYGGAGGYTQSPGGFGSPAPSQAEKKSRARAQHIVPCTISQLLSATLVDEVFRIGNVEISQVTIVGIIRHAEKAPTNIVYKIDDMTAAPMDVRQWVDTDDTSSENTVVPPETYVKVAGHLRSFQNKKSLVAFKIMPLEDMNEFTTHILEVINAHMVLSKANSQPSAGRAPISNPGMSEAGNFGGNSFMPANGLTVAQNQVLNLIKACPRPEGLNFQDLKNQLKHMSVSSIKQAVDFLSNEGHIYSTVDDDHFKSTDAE
Sequence of RPA (P35244 whole entry, chain 3 of 3): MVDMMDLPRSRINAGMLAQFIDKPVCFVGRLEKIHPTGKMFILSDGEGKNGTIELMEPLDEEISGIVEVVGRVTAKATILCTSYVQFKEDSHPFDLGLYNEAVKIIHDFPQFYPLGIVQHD

RAD51;SWSAP1-SWS1 = RAD51;SWSAP1-SWS1 (human;human, UniProt Q06609;Q6NVH7;Q19AV6 1-339;1-250;1-140, |)
Sequence of RAD51;SWSAP1-SWS1 (Q06609 whole entry, one chain of several): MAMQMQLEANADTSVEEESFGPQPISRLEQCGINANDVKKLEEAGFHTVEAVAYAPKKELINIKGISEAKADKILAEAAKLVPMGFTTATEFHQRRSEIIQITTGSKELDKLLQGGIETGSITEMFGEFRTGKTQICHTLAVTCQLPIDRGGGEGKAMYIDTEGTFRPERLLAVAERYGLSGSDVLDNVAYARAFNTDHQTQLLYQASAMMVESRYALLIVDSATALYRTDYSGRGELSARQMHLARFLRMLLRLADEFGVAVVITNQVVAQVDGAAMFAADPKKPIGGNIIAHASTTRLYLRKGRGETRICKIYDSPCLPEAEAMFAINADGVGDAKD

RAD51 = RAD51 (human, UniProt Q06609 1-339)
Sequence of RAD51 (Q06609 whole entry): as the sequence (Q06609 whole entry, one chain of several) above

B1: Cy3-dT60-Cy5 (ssDNA)
DNA: TTTTTTTTTTTTTTTTTTTTTTTTTTTTTTTTTTTTTTTTTTTTTTTTTTTTTTTTTTTT
Question: Does B1 bind (SWSAP1-SWS1)?
Answer: Result: no binding

Question: Does B1 bind (RPA)?
Answer: Result: binds

Question: Does B1 bind (RAD51;SWSAP1-SWS1)?
Answer: Result: binds

Question: Does B1 bind (RAD51)?
Answer: Result: binds
